Laboratory results published in the RNAGym collection of RNA variant scans (doi:10.7554/elife.90254).

B1: OR4K15 (parent)
chain: GUUAACGGUCAUAGGCCAUGGAAACUAGGAGCACCAUUUCGCUGCCAGUGAAGAAAUGAACAAAGAAAAUCUGGGCCAGGCAGGCAUCAAAAGAAAUAGUCUUGCGCUCAACCAGAAAGUCUGUAAUCAUUUUAAGGGUA

Variants of: B1
Assay: self-cleavage, relative activity (ratio to wild type); higher = more cleavage; in vitro, sequencing; the parent is a self-cleaving ribozyme

Variant | self-cleavage
U120C A135G | 1.03
U19G A51U | 1.46
A33G C77U | 1.59
A51G G123A | 2.08
A91G A118U | 0.53
C6U U49C | 0.83
A96C U130C | 0.69
A27C A78C | 0.25
A60G U72A | 0.17
U120G U122C | 1.08
G50U U120C | 1.29
A23G U26A | 1.22
A11G A95G | 1.73
A30G U87A | 0.88
A22G A78U | 0.32
G99A U120C | 0.26
C16U G73A | 0.15
G31C A125G | 0.93
A18U A69U | 1.37
G21A U72C | 0.3
G79A A98U | 0.13
A68G A118U | 0.83
A27C | 1.21
U87C A116C | 0.06

Variant | self-cleavage
A27U A134G | 1.3
A66U A96G | 1.17
A22G A33C | 0.57
U39A A52U | 1.65
U37A A126G | 0.44
U103G U131C | 0.01
U2G U132C | 1.4
A24G | 1.09
A86U A135G | 2.44
A59G A129U | 0.86
A82G A114G | 0.08
A24C U43A | 0.67
A90G U127A | 2.66
A59G A69U | 1.7
U19C U132A | 1.89
G31U A82G | 0.19
G41C A69G | 1.84
A66G A67U | 1.61
A33G A47U | 0.57
A33U C128A | 0.48
U43A U108C | 0.02
U12C A63C | 1.12
A69C U120C | 0.7
U103C A140U | 1.14

Variant | self-cleavage
A52U A96G | 1.91
C101U U120A | 0.4
U38C U120C | 1.06
A24U A96G | 0.87
G28A C88U | 2.33
U108C U127A | 0.01
U124C G137C | 0.78
U2C G50U | 1.13
U2C G7U | 1.2
A22G A92G | 1.08
U19C A51U | 1
G29U | 1.83
U26G A114U | 0.06
A36C A96G | 1.9
C25U A118G | 0.68
U38A U49C | 1.72
A51U G93A | 1.71
A30G G74C | 0.34
C105A U124A | 0.02
A67G G137A | 1.67
U108C A117G | 0.01
A51U C128A | 0.45
U49C G80A | 0.21
G80A U108A | 0.02

Variant | self-cleavage
U87C A110G | 0.1
A33G A51G | 0.75
U70C U122C | 0.09
A69G A140G | 1.93
A86C G106U | 0.01
A117C U139C | 0.68
U49A A54U | 0.89
U38A U57C | 0.69
U102A A140G | 1.02
A92G A118G | 1.26
C81G | 0.2
A52U U72G | 0.39
U19C C105G | 0.04
G80A A91G | 0.08
A68G G84A | 2.58
A59G U132C | 0.46
U9G A91C | 0.6
U37C A62U | 1.49
A5G U9A | 1.38
A110G U131C | 0.08
G53A G119U | 2.11
A11G A126G | 0.39
A94G A95U | 2.66
A33U A135U | 1.79

Variant | self-cleavage
U124A A126G | 0.76
A5G A55C | 0.33
A67U A78C | 0.23
U2C A89G | 0.63
U100G U108A | 0.02
A78U A111U | 0.04
U72C G93A | 0.32
U120C U124C | 0.34
U19A A66G | 1.27
A118U A129G | 0.85
G79A U130C | 0.15
A59G A134G | 0.34
U49C C77U | 2.23
A125U U133C | 2.54
U12A A55U | 2.25
C40U A116C | 0.08
A24C A125G | 0.43
U37C U130A | 0.91
U12C U43A | 0.93
A18C U127C | 0.63
U70C U139C | 0.7
A30G G104A | 0.08
A5U G29A | 1.2
A91G U132A | 0.69

Variant | self-cleavage
A55G G137A | 1.82
A47U A82U | 0.17
A90G A129U | 0.35
A89G U131C | 0.59
G84U C88U | 0.52
A54U A92G | 1.54
A110G U132C | 0.07
A117G | 1.4
G83A A90G | 1.34
A22G C25G | 1.24
A27U U130C | 1.07
C40U A78U | 0.32
C35U U132C | 0.37
C81G A82G | 0.3
G73A A111G | 0.02
A36G C76A | 0.12
U39G A62G | 1.3
A23U A69G | 1.02
A62U A111G | 0.02
U39G A67U | 1.13
G14A A33U | 1.16
A36G A91C | 1.96
U87C C112U | 0.02
A63G C109U | 0.69

Variant | self-cleavage
A22G A64U | 0.62
A11G U49G | 1.21
G15A C113G | 0.02
A60G U87C | 0.93
A23C A51U | 1.46
A117U U139C | 1.57
U9G A89U | 1.03
A68G A92C | 1.7
A82G U139A | 0.23
C17U U43A | 1.18
U9A G106C | 0.05
G15U A118G | 1.88
A11G A117G | 1.19
A59G A92U | 1.08
C45A G48A | 1.5
A33G A36U | 1.33
U19C G48U | 2.78
U3C A114U | 0.04
A60G U124C | 0.63
A18U A36G | 1.65
A22G A125U | 1.32
U43A A66G | 1.96
C16G U124A | 0.77
U43C U100A | 0.67

Variant | self-cleavage
A78G U120C | 0.19
U70A A89G | 1.13
U70A U130C | 0.61
A11G A18G | 1.36
A13G A95U | 2.06
A5G A82U | 0.41
U19C A116U | 0.3
U97C A111U | 0.07
G28U A118U | 0.68
A47G U122A | 1.11
A64C U102A | 0.71
G20C A36G | 2.25
U26C A118G | 2.14
A116G U131A | 0.25
U39G A95G | 1.81
U2C A110G | 0.11
A63G U102G | 0.54
A22U A62G | 1.98
U12C A111G | 0.03
A36U A67U | 1.55
A22G A91G | 0.49
A52G C121U | 1.18
U3C A24G | 0.9
A18U A82G | 0.46

Variant | self-cleavage
A4U | 1.19
G14U | 1.11
U3A A64G | 1.11
A59G A78U | 0.28
A59U A68C | 1.35
C34G U132C | 2.44
A47C A114G | 0.3
U100C U132C | 2.14
A52U U102A | 0.36
A52G C88U | 1.39
U9C A78G | 0.32
A78U U120G | 0.37
A68U U100C | 2.4
A89G A98G | 0.67
A67G C88U | 1.97
A33U U38C | 2
G115U A129U | 0.03
A22G U37C | 1.68
U43G A67U | 2.63
G84U | 0.7
A56U U133C | 2.27
U3C U37C | 1.05
A55G U139A | 1.49
A116U A117G | 0.15

Variant | self-cleavage
C16A U39A | 1.23
C107U A111G | 0
U38C A94C | 1.41
C25A U122A | 0.94
A24G C105U | 0.26
A82G A91G | 0.12
U26A A54C | 1.61
A5U A56U | 1.15
A24G G58A | 0.4
U38C U103A | 0.64
A18G G48A | 1.81
U39C A95U | 1.78
A24C A30G | 1.02
A89U G115U | 0.56
C17A U103C | 1.08
A55G A78G | 0.23
A118G U133A | 1.28
A47U C77A | 0.69
A5G A118U | 0.56
A23U A67U | 1.91
A62G A116U | 0.35
A92C A111G | 0.03
U103A U124C | 0.07
U26C U37C | 0.95

Variant | self-cleavage
U12C A89C | 1.09
U26C A117G | 1.36
U26C A117U | 0.5
U130A U139A | 0.89
U2C U49A | 1.5
A22U U130C | 0.32
C109A A118G | 0.32
A5G A64G | 1.16
G44A A125C | 1.48
A13G A116G | 0.55
G123A | 1.06
G21U U87A | 1.31
A47G U103C | 0.34
A18G A47U | 1.1
G15A U72C | 0.37
A24U A117G | 1.85
A23G U57A | 0.53
A36G A51U | 1.86
C34A A59G | 1.11
G20A A68G | 1.37
U2C U122A | 1.85
A114U A135G | 0.05
A5U A116G | 1.13
U38A G137U | 2.73

Variant | self-cleavage
U38A A118G | 2.73
A22G A89U | 1.43
C105G | 0.02
A66G A90G | 1.17
U19G A78C | 0.39
A135G | 1.14
U9G U108C | 0.05
A51G G79A | 0.23
C107U A118G | 0
U38A A94C | 1.68
A18G A90G | 1.36
U43G U103A | 1.15
A55G U72G | 0.25
U124C G138C | 1.31
U49A A55G | 1.53
A18C A68U | 1.04
G29A A47G | 0.87
U39C C76U | 0.19
U72C A94G | 0.07
A4G C88G | 1.46
U49C A92G | 1.47
U103C A135U | 1.34
A98U U122C | 2
A55G U122A | 1.39

Variant | self-cleavage
A51G A86G | 1.46
A4G C85U | 0.99
A111G A116U | 0.04
A27G G104A | 0.02
A23G G41A | 1.29
U26G U127A | 1.82
A82G A126G | 0.33
A86U A110C | 0.36
A33U A125G | 0.99
U2C | 0.88
C45G U100C | 1.37
A69U U97A | 2.51
U2C A22G | 1.11
U127C A129G | 0.46
U70C U132A | 0.38
A30U U131C | 1.07
A95G A110G | 0.15
U87C A98U | 1.9
U132C A135U | 2.17
A62G G136U | 1.1
C6A A67G | 0.72
U12G A27C | 1
A66C C113A | 0.02
U132C A140U | 1.65

Variant | self-cleavage
U132C A140G | 1.79
G14A C71U | 0.37
A24G U97A | 1.79
A56C A62G | 0.6
A90G G137C | 1.19
A59G U100C | 2.06
A68G A129G | 1.05
A30G A135G | 1.51
A24U U103C | 0.25
A63G U87G | 1.35
A13U U132C | 2.18
A68G U97C | 1.3
U19C U39C | 1.7
A62G U102A | 1.14
A82C U120C | 0.11
A13G A51U | 0.66
A95C A96G | 1.13
A78G U127A | 0.31
A36U A114G | 0.6
A78U U124C | 0.26
U43G A90G | 0.51
A4U A59U | 1.95
